This passage reports fold selectivity for free Nedd8 compared to precursor Nedd8 and Kd results from publication PMC11443517.

For one test, the target named is eDEN1-FRET-D10N. In words: FRET or BRET; intramolecular FRET of 50 nM sensor (ratio of emission at 475 nm to 525 nm, excitation 440 nm) titrated with free or precursor Nedd8, binding competes with the reporter interaction; PBS pH 7.4, 0.05% Brij-35, 0.2 mg/mL ovalbumin, 1 mM DTT; single-site fit.
The target of the next test is eDEN1-nanoBiT. The test is described as follows: split reporter (BiFC, NanoBiT); intramolecular split nanoluciferase of purified eDEN1-nanoBiT, luminescence at 450 nm falls on binding; titration with the ligand; PBS pH 7.4, 0.2 mg/mL ovalbumin, 1 mM DTT, no Brij-35, 70 uM furimazine, 25 C, 96-well plate; single-site fit.
For test [1], the target named is eDEN1-FRET-D10N construct lacking the C163A mutation. In words: FRET or BRET; intramolecular FRET of 50 nM sensor (ratio of emission at 475 nm to 525 nm, excitation 440 nm) titrated with free or precursor Nedd8, binding competes with the reporter interaction; PBS pH 7.4, 0.05% Brij-35, 0.2 mg/mL ovalbumin, 1 mM DTT; single-site fit. For orientation: Bioluminescence resonance energy transfer reports proximity on the nanometre scale.

The target of test [2] is eDEN1-FRET-D10N with the Wp2 domain replaced by Wp1. The description is as above.
For a further test, the target named is eDEN1-FRET. The description is as above.

The term Kd denotes the concentration at which binding is half-saturated. In the case of “precursor Nedd8 (from UniProt Q15843 1-81) (natural protein)”, the fold selectivity for free Nedd8 compared to precursor Nedd8 in the test with eDEN1-FRET-D10N was 444 fold. In the test with eDEN1-nanoBiT, the Kd worked out at 270 µM.

As to “free Nedd8 (from UniProt Q15843 1-76) (natural protein)”, the Kd in test [1] was 50.5 µM; in test [2], 6.03 µM; in the test with eDEN1-FRET-D10N it was 0.324 µM; with eDEN1-FRET, 7.61 µM; with eDEN1-nanoBiT it was 3.2 µM.
